These results are taken from article PMC10115451 (eLife, 2023).

The target in test [1] is T1, ANDV Gn^B (Andes virus Gn base domain) (Andes virus, NP_604472.1 (Chile-9717869), UniProt Q9E006).
T1 construct: source: Drosophila S2 cells, purified
Description: ELISA. Conditions: both partners purified.

The target in test [2] is T2, ANDV Gc (Andes virus Gc ectodomain) (Andes virus, NP_604472.1 (Chile-9717869), UniProt Q9E006).
T2 construct: source: Drosophila S2 cells, purified
Description: ELISA. Conditions: both partners purified. (In an ELISA, binding on a coated surface is turned into a signal by an enzyme label.)

In test [3] the target is MAPV Gn^H/Gc (linked Maporal virus Gn head domain and Gc ectodomain) (Maporal virus, strain HV-97021050, UniProt Q5MYC0). The experiment in a line: ELISA. The settings on record: both partners purified.
In test [4] the target is T3, ANDV Gn/Gc (Andes virus glycoproteins from the full-length M segment, on the cell surface) (Andes virus, GenBank AF291703.2 …, UniProt Q9E006).
T3 construct: source: Expi293F cells, transfected, on the cell surface
T3 sequence (Q9E006 whole entry, looked up): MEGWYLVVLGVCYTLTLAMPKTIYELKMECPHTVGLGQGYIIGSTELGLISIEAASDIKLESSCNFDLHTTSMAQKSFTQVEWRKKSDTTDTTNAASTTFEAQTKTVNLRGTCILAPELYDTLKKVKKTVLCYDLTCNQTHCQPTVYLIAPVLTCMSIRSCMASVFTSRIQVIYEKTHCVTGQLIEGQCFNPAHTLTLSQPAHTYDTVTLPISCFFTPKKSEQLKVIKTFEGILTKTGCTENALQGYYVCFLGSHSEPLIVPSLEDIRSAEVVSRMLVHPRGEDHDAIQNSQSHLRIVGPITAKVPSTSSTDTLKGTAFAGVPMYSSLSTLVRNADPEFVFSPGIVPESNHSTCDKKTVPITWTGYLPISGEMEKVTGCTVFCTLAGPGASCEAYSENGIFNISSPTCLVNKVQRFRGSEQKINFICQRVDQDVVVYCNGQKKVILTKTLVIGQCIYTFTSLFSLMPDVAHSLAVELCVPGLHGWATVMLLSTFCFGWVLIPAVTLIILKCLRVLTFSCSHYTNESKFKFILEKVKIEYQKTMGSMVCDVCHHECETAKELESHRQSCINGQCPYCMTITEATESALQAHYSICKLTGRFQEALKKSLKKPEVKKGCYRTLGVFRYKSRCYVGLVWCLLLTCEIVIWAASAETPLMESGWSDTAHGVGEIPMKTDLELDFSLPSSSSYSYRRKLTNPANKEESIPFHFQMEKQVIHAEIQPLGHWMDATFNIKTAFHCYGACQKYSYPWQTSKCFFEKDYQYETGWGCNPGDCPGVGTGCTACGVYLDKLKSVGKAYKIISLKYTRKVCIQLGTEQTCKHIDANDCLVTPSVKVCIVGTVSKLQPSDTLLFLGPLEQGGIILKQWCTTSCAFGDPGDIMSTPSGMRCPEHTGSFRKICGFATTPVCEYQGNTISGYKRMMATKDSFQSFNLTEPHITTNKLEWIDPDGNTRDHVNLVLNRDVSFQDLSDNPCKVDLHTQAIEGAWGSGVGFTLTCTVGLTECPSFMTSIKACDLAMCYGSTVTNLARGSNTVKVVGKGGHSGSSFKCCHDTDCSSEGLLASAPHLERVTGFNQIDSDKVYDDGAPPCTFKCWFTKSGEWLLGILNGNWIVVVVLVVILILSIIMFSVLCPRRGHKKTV
Description: flow cytometry on cells. The settings on record: one partner purified. A general note: In flow cytometry, cells or beads pass a laser one at a time.

T2 sequence (Q9E006 652-1107): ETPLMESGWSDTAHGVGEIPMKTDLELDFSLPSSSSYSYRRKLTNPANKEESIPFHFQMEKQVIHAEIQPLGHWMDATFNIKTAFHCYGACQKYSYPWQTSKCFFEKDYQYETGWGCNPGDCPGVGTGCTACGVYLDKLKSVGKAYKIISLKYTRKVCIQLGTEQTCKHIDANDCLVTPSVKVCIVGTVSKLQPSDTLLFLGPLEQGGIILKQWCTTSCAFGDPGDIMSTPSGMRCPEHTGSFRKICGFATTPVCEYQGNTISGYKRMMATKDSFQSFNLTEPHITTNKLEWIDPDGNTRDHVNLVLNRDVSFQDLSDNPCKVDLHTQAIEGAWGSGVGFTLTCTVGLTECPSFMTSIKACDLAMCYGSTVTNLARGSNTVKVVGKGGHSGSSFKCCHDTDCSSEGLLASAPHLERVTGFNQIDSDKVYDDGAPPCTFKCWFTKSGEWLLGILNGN
T1 sequence (Q9E006 375-484): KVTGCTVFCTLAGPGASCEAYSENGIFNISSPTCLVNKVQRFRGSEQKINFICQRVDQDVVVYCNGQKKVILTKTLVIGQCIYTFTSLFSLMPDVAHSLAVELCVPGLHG

B1: ANDV-5 (human monoclonal antibody, IgG1) (antibody, V domains shown)
VH: QVQLLQSGAEVKKPGSSVRVSCQSSGDIYNYYGISWVRQAPGQGLEWMGGIIPVYGRPNYVQKFRGRVTFTVDKSTSTAYMELSTLRADDTAVYYCARDTARSHYFGSGNDYGMDVWGQGTTVIVSS
VL: DIVMTQSPLSLPVTPGEPASISCRSSQSLLHSNGFNFVDWYLQKPGQSPQLLIYLGSTRASGVPDRFSGSGSGTDFTLEISRVEAEDVGVYYCMQALQFPRTFGQGTKLDIK
notes: also called rANDV-5; ANDV-5 IgG; source: ExpiCHO cells, transiently transfected, purified (HiTrap MabSelectSure); copies: 2 + 2
Consider B1, for which the binding result is “no binding” in test [1], “no binding” in test [2], “binds” in test [3] and “binds” in test [4].

B2: ANDV-5 Fab (Fab, V domains shown)
VH: B1 VH
VL: B1 VL
notes: also called Fab ANDV-5; Fab form of ANDV-5; source: ExpiCHO cells, transiently transfected, purified (CaptureSelect CH1-XL)
Regarding B2, the binding result in test [4] is listed as “binds”.

B3: ANDV-34 (human monoclonal antibody, IgG1) (antibody, V domains shown)
VH: QVHLVQSGGELRKPGSSVKVSCKASGGTFSSFAITWLRQAPGQGLEWVGAYIPVFGSAIHGQKVHGRVTLTADESTTTAYMELSSLRSEDTAVYFCARGPTQNWEYSYYTYFESWGQGTLVTVSS
VL: QIVLTQSPGTLSLSPGERATLSCRASQSVTSRYLAWYQQKPGQAPRLLIYDTSSRATGIPDRFSGSGSETDFTLTISRLAPEDFAVYYCQQYGTSPAVTFGQGTRLEIK
notes: also called rANDV-34; source: ExpiCHO cells, transiently transfected, purified (HiTrap MabSelectSure); copies: 2 + 2
Take B3: the binding result is on record as “no binding” in test [1], “no binding” in test [2], “no binding” in test [3] and “binds” in test [4].
